Results reported in the supplement of paper PMC10567573.

B1: ZER1 (parent)
chain: KEMARKVIEHCSNFKEENMDTSR
B2: FAM107A (parent)
chain: LQRVLEHRRRNQLIKKKKEELEAK

Variants of: B1
Assay: protein stability index of a GFP-peptide fusion (GPS, HEK-293T) (PSI 1-6); higher = more stable
Settings: c terminus: native
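Further: lentivirally expressed fusions sorted by FACS into six bins by GFP to DsRed ratio, PSI derived from sequencing read proportions per bin multiplied by bin number.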

**Q.** With KEMARKVIEHCSNFKEENMYTSR as the variant, how does the protein stability index read?
**A.** The protein stability index was 2.89.

**Q.** With KEMARKVIEHCSNFKEENMDASR as the variant, how does the protein stability index read?
**A.** Its protein stability index is 4.09.

**Q.** Which protein stability index does the source give for KEMARKVIEHCSNFKEENMDCSR here?
**A.** The protein stability index was 3.39.

**Q.** Which protein stability index does the source give for KEMARKVIEHCSNFKEENMDDSR here?
**A.** Its protein stability index is 5.16.

**Q.** With KEMARKVIEHCSNFKEENMDESR as the variant, how does the protein stability index read?
**A.** The protein stability index was 4.98.

**Q.** Which protein stability index does the source give for KEMARKVIEHCSNFKEENMDFSR here?
**A.** Its protein stability index is 3.84.

**Q.** Which protein stability index does the source give for KEMARKVIEHCSNFKEENMDGSR here?
**A.** Its protein stability index is 5.12.

**Q.** With KEMARKVIEHCSNFKEENMDHSR as the variant, how does the protein stability index read?
**A.** Its protein stability index is 2.18.

**Q.** With KEMARKVIEHCSNFKEENMDISR as the variant, how does the protein stability index read?
**A.** Its protein stability index is 3.16.

**Q.** With KEMARKVIEHCSNFKEENMDKSR as the variant, how does the protein stability index read?
**A.** The protein stability index was 1.68.

**Q.** Which protein stability index does the source give for KEMARKVIEHCSNFKEENMDLSR here?
**A.** The protein stability index was 3.26.

**Q.** For KEMARKVIEHCSNFKEENMDMSR, which protein stability index is on record?
**A.** Its protein stability index is 4.41.

**Q.** With KEMARKVIEHCSNFKEENMDNSR as the variant, how does the protein stability index read?
**A.** Its protein stability index is 4.48.

**Q.** For KEMARKVIEHCSNFKEENMDPSR, which protein stability index is on record?
**A.** The protein stability index was 4.17.

**Q.** Which protein stability index does the source give for KEMARKVIEHCSNFKEENMDQSR here?
**A.** Its protein stability index is 3.84.

**Q.** For KEMARKVIEHCSNFKEENMDRSR, which protein stability index is on record?
**A.** The protein stability index was 1.65.

**Q.** For KEMARKVIEHCSNFKEENMDSSR, which protein stability index is on record?
**A.** The protein stability index was 4.65.

**Q.** Which protein stability index does the source give for KEMARKVIEHCSNFKEENMDVSR here?
**A.** Its protein stability index is 3.1.

**Q.** With KEMARKVIEHCSNFKEENMDWSR as the variant, how does the protein stability index read?
**A.** Its protein stability index is 2.3.

**Q.** For KEMARKVIEHCSNFKEENMDYSR, which protein stability index is on record?
**A.** The protein stability index was 2.13.

**Q.** Which protein stability index does the source give for KEMARKVIEHCSNFKEENMDTAR here?
**A.** Its protein stability index is 2.64.

**Q.** Which protein stability index does the source give for KEMARKVIEHCSNFKEENMDTCR here?
**A.** Its protein stability index is 2.4.

**Q.** For KEMARKVIEHCSNFKEENMDTDR, which protein stability index is on record?
**A.** Its protein stability index is 4.07.

**Q.** With KEMARKVIEHCSNFKEENMDTER as the variant, how does the protein stability index read?
**A.** Its protein stability index is 3.74.

**Q.** With KEMARKVIEHCSNFKEENMDTFR as the variant, how does the protein stability index read?
**A.** The protein stability index was 3.72.

**Q.** For KEMARKVIEHCSNFKEENMDTGR, which protein stability index is on record?
**A.** The protein stability index was 3.48.

**Q.** With KEMARKVIEHCSNFKEENMDTHR as the variant, how does the protein stability index read?
**A.** The protein stability index was 3.09.

**Q.** For KEMARKVIEHCSNFKEENMDTIR, which protein stability index is on record?
**A.** The protein stability index was 3.72.

**Q.** Which protein stability index does the source give for KEMARKVIEHCSNFKEENMDTKR here?
**A.** The protein stability index was 2.86.

**Q.** Which protein stability index does the source give for KEMARKVIEHCSNFKEENMDTLR here?
**A.** The protein stability index was 3.58.

**Q.** Which protein stability index does the source give for KEMARKVIEHCSNFKEENMDTMR here?
**A.** The protein stability index was 3.43.

**Q.** For KEMARKVIEHCSNFKEENMDTNR, which protein stability index is on record?
**A.** The protein stability index was 4.12.

**Q.** For KEMARKVIEHCSNFKEENMDTPR, which protein stability index is on record?
**A.** The protein stability index was 4.29.

**Q.** With KEMARKVIEHCSNFKEENMDTQR as the variant, how does the protein stability index read?
**A.** The protein stability index was 3.72.

**Q.** For KEMARKVIEHCSNFKEENMDTRR, which protein stability index is on record?
**A.** The protein stability index was 2.38.

**Q.** For KEMARKVIEHCSNFKEENMDTTR, which protein stability index is on record?
**A.** The protein stability index was 4.42.

**Q.** For KEMARKVIEHCSNFKEENMDTVR, which protein stability index is on record?
**A.** The protein stability index was 3.7.

**Q.** With KEMARKVIEHCSNFKEENMDTWR as the variant, how does the protein stability index read?
**A.** The protein stability index was 2.97.

**Q.** Which protein stability index does the source give for KEMARKVIEHCSNFKEENMDTYR here?
**A.** Its protein stability index is 3.76.

**Q.** Which protein stability index does the source give for KEMARKVIEHCSNFKEENMDTSA here?
**A.** Its protein stability index is 4.67.

**Q.** For KEMARKVIEHCSNFKEENMDTSC, which protein stability index is on record?
**A.** The protein stability index was 4.72.

**Q.** For KEMARKVIEHCSNFKEENMDTSD, which protein stability index is on record?
**A.** The protein stability index was 5.41.

**Q.** Which protein stability index does the source give for KEMARKVIEHCSNFKEENMDTSE here?
**A.** Its protein stability index is 5.48.

**Q.** For KEMARKVIEHCSNFKEENMDTSF, which protein stability index is on record?
**A.** Its protein stability index is 4.69.

**Q.** Which protein stability index does the source give for KEMARKVIEHCSNFKEENMDTSG here?
**A.** Its protein stability index is 5.08.

**Q.** Which protein stability index does the source give for KEMARKVIEHCSNFKEENMDTSH here?
**A.** The protein stability index was 5.07.

**Q.** For KEMARKVIEHCSNFKEENMDTSI, which protein stability index is on record?
**A.** Its protein stability index is 4.9.

**Q.** For KEMARKVIEHCSNFKEENMDTSK, which protein stability index is on record?
**A.** Its protein stability index is 5.27.

**Q.** For KEMARKVIEHCSNFKEENMDTSL, which protein stability index is on record?
**A.** The protein stability index was 4.86.

**Q.** Which protein stability index does the source give for KEMARKVIEHCSNFKEENMDTSM here?
**A.** Its protein stability index is 4.6.

**Q.** With KEMARKVIEHCSNFKEENMDTSN as the variant, how does the protein stability index read?
**A.** The protein stability index was 5.16.

**Q.** Which protein stability index does the source give for KEMARKVIEHCSNFKEENMDTSP here?
**A.** Its protein stability index is 4.6.

**Q.** Which protein stability index does the source give for KEMARKVIEHCSNFKEENMDTSQ here?
**A.** Its protein stability index is 5.31.

**Q.** With KEMARKVIEHCSNFKEENMDTSS as the variant, how does the protein stability index read?
**A.** The protein stability index was 4.84.

**Q.** Which protein stability index does the source give for KEMARKVIEHCSNFKEENMDTST here?
**A.** The protein stability index was 5.01.

**Q.** Which protein stability index does the source give for KEMARKVIEHCSNFKEENMDTSV here?
**A.** The protein stability index was 4.76.

**Q.** Which protein stability index does the source give for KEMARKVIEHCSNFKEENMDTSW here?
**A.** Its protein stability index is 3.91.

**Q.** For KEMARKVIEHCSNFKEENMDTSY, which protein stability index is on record?
**A.** Its protein stability index is 4.54.

Variants of: B2
Assay: as above
Settings: c terminus: a fixed tail appended

**Q.** Which protein stability index does the source give for AQRVLEHRRRNQLIKKKKEELEAK here?
**A.** Its protein stability index is 4.61.

**Q.** For DQRVLEHRRRNQLIKKKKEELEAK, which protein stability index is on record?
**A.** Its protein stability index is 5.36.

**Q.** For EQRVLEHRRRNQLIKKKKEELEAK, which protein stability index is on record?
**A.** The protein stability index was 4.79.

**Q.** Which protein stability index does the source give for FQRVLEHRRRNQLIKKKKEELEAK here?
**A.** Its protein stability index is 3.13.

**Q.** Which protein stability index does the source give for GQRVLEHRRRNQLIKKKKEELEAK here?
**A.** The protein stability index was 4.37.

**Q.** Which protein stability index does the source give for IQRVLEHRRRNQLIKKKKEELEAK here?
**A.** Its protein stability index is 2.73.

**Q.** Which protein stability index does the source give for KQRVLEHRRRNQLIKKKKEELEAK here?
**A.** The protein stability index was 4.85.

**Q.** Which protein stability index does the source give for MQRVLEHRRRNQLIKKKKEELEAK here?
**A.** The protein stability index was 3.64.

**Q.** For PQRVLEHRRRNQLIKKKKEELEAK, which protein stability index is on record?
**A.** The protein stability index was 4.66.

**Q.** For QQRVLEHRRRNQLIKKKKEELEAK, which protein stability index is on record?
**A.** The protein stability index was 5.11.

**Q.** With TQRVLEHRRRNQLIKKKKEELEAK as the variant, how does the protein stability index read?
**A.** Its protein stability index is 4.72.

**Q.** With WQRVLEHRRRNQLIKKKKEELEAK as the variant, how does the protein stability index read?
**A.** The protein stability index was 2.56.

**Q.** Which protein stability index does the source give for YQRVLEHRRRNQLIKKKKEELEAK here?
**A.** The protein stability index was 3.02.

**Q.** For LARVLEHRRRNQLIKKKKEELEAK, which protein stability index is on record?
**A.** The protein stability index was 2.93.

**Q.** For LCRVLEHRRRNQLIKKKKEELEAK, which protein stability index is on record?
**A.** Its protein stability index is 2.98.

**Q.** Which protein stability index does the source give for LDRVLEHRRRNQLIKKKKEELEAK here?
**A.** The protein stability index was 3.25.

**Q.** Which protein stability index does the source give for LERVLEHRRRNQLIKKKKEELEAK here?
**A.** Its protein stability index is 3.89.

**Q.** Which protein stability index does the source give for LFRVLEHRRRNQLIKKKKEELEAK here?
**A.** Its protein stability index is 2.16.

**Q.** For LGRVLEHRRRNQLIKKKKEELEAK, which protein stability index is on record?
**A.** Its protein stability index is 4.38.

**Q.** Which protein stability index does the source give for LIRVLEHRRRNQLIKKKKEELEAK here?
**A.** Its protein stability index is 1.8.

**Q.** With LKRVLEHRRRNQLIKKKKEELEAK as the variant, how does the protein stability index read?
**A.** Its protein stability index is 4.01.

**Q.** Which protein stability index does the source give for LLRVLEHRRRNQLIKKKKEELEAK here?
**A.** The protein stability index was 1.81.

**Q.** Which protein stability index does the source give for LMRVLEHRRRNQLIKKKKEELEAK here?
**A.** Its protein stability index is 2.78.

**Q.** Which protein stability index does the source give for LNRVLEHRRRNQLIKKKKEELEAK here?
**A.** Its protein stability index is 4.13.

**Q.** With LPRVLEHRRRNQLIKKKKEELEAK as the variant, how does the protein stability index read?
**A.** Its protein stability index is 3.98.

**Q.** Which protein stability index does the source give for LRRVLEHRRRNQLIKKKKEELEAK here?
**A.** Its protein stability index is 3.67.

**Q.** For LTRVLEHRRRNQLIKKKKEELEAK, which protein stability index is on record?
**A.** The protein stability index was 4.02.

**Q.** Which protein stability index does the source give for LVRVLEHRRRNQLIKKKKEELEAK here?
**A.** Its protein stability index is 2.41.

**Q.** For LWRVLEHRRRNQLIKKKKEELEAK, which protein stability index is on record?
**A.** Its protein stability index is 2.06.

**Q.** For LYRVLEHRRRNQLIKKKKEELEAK, which protein stability index is on record?
**A.** The protein stability index was 2.13.

**Q.** With LQAVLEHRRRNQLIKKKKEELEAK as the variant, how does the protein stability index read?
**A.** Its protein stability index is 3.21.

**Q.** Which protein stability index does the source give for LQCVLEHRRRNQLIKKKKEELEAK here?
**A.** Its protein stability index is 3.13.

**Q.** Which protein stability index does the source give for LQDVLEHRRRNQLIKKKKEELEAK here?
**A.** Its protein stability index is 4.5.

**Q.** Which protein stability index does the source give for LQEVLEHRRRNQLIKKKKEELEAK here?
**A.** Its protein stability index is 5.32.

**Q.** Which protein stability index does the source give for LQFVLEHRRRNQLIKKKKEELEAK here?
**A.** Its protein stability index is 3.04.

**Q.** Which protein stability index does the source give for LQHVLEHRRRNQLIKKKKEELEAK here?
**A.** The protein stability index was 4.12.

**Q.** Which protein stability index does the source give for LQIVLEHRRRNQLIKKKKEELEAK here?
**A.** The protein stability index was 2.09.
